Reference: patent US20050147610A1 (AbbVie / Abbott, published 2005)
Where a chain is given by its changes, count along the chain named. Values joined by “and” are separate entries in the source; they are usually repeats but may differ in a detail not shown here. Identical values can stand only once. Like-named read-outs stand apart in the source and are kept apart here.

Tests used:
[1] = target: T1, NEM-huIL-18 (recombinant mature human IL-18 treated with N-ethyl maleiamide) (human, UniProt Q14116 37-193, cysteines protected with N-ethyl maleiamide (NEM)); test: cell-based or functional assay
[2] = target: T1, NEM-huIL-18 (recombinant mature human …); test: cell-based or functional assay; remark: listed apart in the source
[3] = target: T2, natural human IL-18 (endogenous, human whole blood) (human, UniProt Q14116 37-193); test: cell-based or functional assay
[4] = target: T3, 125I labeled rhu-IL-18 (human, UniProt Q14116 37-193, NEM-treated cysteines; 125I label on lysine residues); test: RBA: inhibition of 125I-rhu-IL-18 binding to IL-18Rαβ on KG-1 cells
[5] = target: T1, NEM-huIL-18 (recombinant mature human …); test: Biacore, NEM-cys protected rhuIL-18
[6] = target: recombinant mature human IL-18 (preparation not specified) (human, UniProt Q14116 37-193); test: cell-based or functional assay
[7] = target: T2, natural human IL-18 (endogenous, human …); test: cell-based or functional assay; remark: listed apart in the source
[8] = target: T3, 125I labeled rhu-IL-18; test: RBA: inhibition of 125I-rhu-IL-18 binding to IL-18Rαβ on KG-1 cells; remark: listed apart in the source

B1: 2.13.1 (antibody, V domains shown)
VH: ZVQLQESGPGLVTPSQTLSLTCTVSGGSISSGGHYWTWIRQHPGKGLEWIGYIYYSGSTYYNPSLKSRLTISVDTSKNQFSLKLSSVAAADTAVYYCARDRGGSGSYWDYWGQGTLVTVSS
VL: EIVLTQSPGTLSLSPGERATLSCRGSRSVSSGYLAWYQQKPGQAPRLLIYGVSIRATGIPDRFSGSGSGTDFTLTISRLEPEDFAVYYCQQYHGSPLTFGGGTKVEIKR
[1]
  KG-1 Assays (IC50, M), NEM-rhuIL-18: 2e-10 M and 1e-10 M and 7e-11 M

B2: 215 (antibody, V domains shown)
VH: ZVQLQESGPGLVKPSQTLSLTCTVSGGSINSGDYYWSWIRQHPGKGLEWIGHISYRGTTYYNPSLKSRVTISVDTSKNQFSLKLSSVTAADTAVYCCARDRGGGFFDLWGRGTLVTVSS
VL: B1 VL with G25A, V29L, V52A, G69A, H93N, G94Y, K104R, K108N
[1]
  KG-1 Assays (IC50, M), NEM-rhuIL-18: 1e-10 M and 3e-10 M

B3: 2.13.1(E)wtg1 (antibody, V domains shown)
VH: B1 VH with Z1E
VL: B1 VL
[2]
  KG-1 (IC50, nM): 0.12 nM
[3]
  WBA (IC50, nM): 2 nM
[4]
  IC50: 0.2 nM
[5]
  Kd: 0.2 nM

B4: 351 (antibody, V domains shown)
VH: ZVQLVESGGGVVQPGRSLRLSCAASGFTFSHYGMHWVRQAPGKGLEWVAVISYDGRNKYYVDSVKGRFTISRDNSKNTLYLQMNSLRAEDTAVFYCAREKGGSGWPPFYYYYGMDVWGQGTTVTVSS
VL: DIVMTQTPLSLSVTPGQPASISCKSSQNLLYSDGETYLCWYLQKPGQPPQLLIYEVSNRFSGVPERFSGSGSGTDFTLKISRVEAEDVGIYYCMQNVQLPLTFGGGTRVEIKR
[1]
  KG-1 Assays (IC50, M), NEM-rhuIL-18: 2e-10 M

B5: 2.5.1 (antibody, V domains shown)
VH: ZVQLVQSGTEVKKPGESLKISCKGSGYTVTSYWIGWVRQMPGKGLEWMGFIYPGDSETRYSPTFQGQVTISADKSFNTAFLQWSSLKASDTAMYYCARVGSGWYPYTFDIWGQGTMVTVSS
VL: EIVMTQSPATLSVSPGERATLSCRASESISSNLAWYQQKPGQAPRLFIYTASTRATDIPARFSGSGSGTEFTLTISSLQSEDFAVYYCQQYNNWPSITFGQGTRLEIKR
[1]
  KG-1 Assays (IC50, M), NEM-rhuIL-18: 3e-10 M and 4e-10 M

B6: IL-18BP-Fc (Fc fusion, UniProt O95998 31-194, looked up, not shown: a dimerising Fc or GST)
chain: TPVSQTTTAATASVRSTKDPCPSQPPVFPAAKQCPALEVTWPEVEVPLNGTLSLSCVACSRFPNFSILYWLGNGSFIEHLPGRLWEGSTSRERGSTGTQLCKALVLEQLTPALHSTNFSCVLVDPEQVVQRHVVLAQLWAGLRATLPPTQEALPSSHSSPQQQG
[6]
  KG-1, Neutralization Potency in vitro (IC50, nM): 0.03 nM
[7]
  WBA, Neutralization Potency in vitro (IC50, nM): 5.7 nM
[8]
  IC50: 1 nM

B7: 435 (antibody, V domains shown)
VH: ZLQLQESGPGLVKPSETLSLTCTVSGGSIDSRIYYWGWIRQPPGKGLEWIGSIYYRGSTYYNPSLKSRVTISVDTPKNQFSLKLNSVTAADTAVYYCAREDSSAWVFDYWGQGTLATVSS
VL: EIVLTQSPGTLSLSPGERATLSCRASQSVRNNYLNWYQQKPGQAPRLLIYGAFSRATGIPDRFSGSGSGTDFTLTISSLEPEDFVVYYCQQYGNSIDSFGQGTKLEINR
[1]
  KG-1 Assays (IC50, M), NEM-rhuIL-18: 8e-10 M and 7e-10 M and 4e-10 M

B8: 413 (antibody, V domains shown)
VH: ZTQLQESGPGLVKPSETLSLTCTVSGGSISSRVYYWGWIRQPPGKGLEWIGSIYYSGSTYYSPSLKSRVTISVDTSKNQFSLKLSSVTAADTAIYYCAREDSSAWVFEHWGQGTLVTVSS
VL: EIVLTQSPDTLSLSPGERATLSCRASQILSRNYLAWYQQKPGQAPRLLIYGISIRATGIPDRFSGSGSGADFTLTINRLEPEDFAVYYCQHYDNSLCSFGQGTKLEVKR
[1]
  KG-1 Assays (IC50, M), NEM-rhuIL-18: 1e-09 M and 7e-10 M
